In patent US20240092841A1:

Tests used:
Assay in all cases: co-IP with agarose-bound AvFc from H460 whole-cell lysate, mass spectrometry
[1] = target: Endothelial protein C receptor (human) (UniProt Q9UNN8)
[2] = target: Attractin (O75882-2) (human) (UniProt O75882)
[3] = target: Cation-dependent mannose-6-phosphate receptor (human) (UniProt P20645)
[4] = target: Secretory carrier-associated membrane protein 3 (human) (UniProt O14828)
[5] = target: Niemann-Pick C1 protein (human) (UniProt O15118)
[6] = target: Nidogen-2 (human) (UniProt Q14112)
[7] = target: Neutral amino acid transporter B (0) (human) (UniProt Q15758)
[8] = target: Integrin alpha-5 (human) (UniProt P08648)
[9] = target: 4F2 cell-surface antigen heavy chain (human) (UniProt P08195)
[10] = target: Transferrin receptor protein 1 (human) (UniProt P02786)
[11] = target: Protocadherin Fat 1 (human) (UniProt Q14517)
[12] = target: Laminin subunit alpha-5 (human) (UniProt O15230)
[13] = target: Myoferlin (Q9NZM1-2) (human) (UniProt Q9NZM1)
[14] = target: Cell cycle control protein 50A (human) (UniProt Q9NV96)
[15] = target: Plexin-B2 (human) (UniProt O15031)
[16] = target: Neural cell adhesion molecule L1 (human) (UniProt P32004)
[17] = target: Solute carrier family 2, facilitated glucose transporter member 1 (human) (UniProt P11166)
[18] = target: Agrin (human) (UniProt O00468)
[19] = target: Serpin H1 (human) (UniProt P50454)
[20] = target: Renin receptor (human) (UniProt O75787)
[21] = target: Integrin alpha-1 (human) (UniProt P56199)
[22] = target: Contactin-associated protein 1 (human) (UniProt P78357)
[23] = target: Integrin beta-5 (human) (UniProt P18084)
[24] = target: ATP-binding cassette sub-family A member 2 (human) (UniProt Q9BZC7)
[25] = target: Urokinase plasminogen activator surface receptor (human) (UniProt Q03405)
[26] = target: Synaptonemal complex protein SC65 (human) (UniProt Q92791)
[27] = target: Laminin subunit alpha-1 (human) (UniProt P25391)
[28] = target: Scavenger receptor class B member 1 (human) (UniProt Q8WTV0)
[29] = target: Prolow-density lipoprotein receptor-related protein 1 (human) (UniProt Q07954)
[30] = target: Sortilin-related receptor (human) (UniProt Q92673)
[31] = target: Solute carrier family 12 member 7 (human) (UniProt Q9Y666)
[32] = target: Laminin subunit beta-1 (human) (UniProt P07942)
[33] = target: Integrin alpha-V (human) (UniProt P06756)
[34] = target: Filamin-A (human) (UniProt P21333)
[35] = target: Transmembrane protein 106B (human) (UniProt Q9NUM4)
[36] = target: Scavenger receptor class A member 5 (human) (UniProt Q6ZMJ2)
[37] = target: Cation-independent mannose-6-phosphate receptor (human) (UniProt P11717)
[38] = target: Laminin subunit gamma-1 (human) (UniProt P11047)
[39] = target: Laminin subunit beta-2 (human) (UniProt P55268)

Sequence of UniProt O15031 (O15031 20-1838 limits assumed): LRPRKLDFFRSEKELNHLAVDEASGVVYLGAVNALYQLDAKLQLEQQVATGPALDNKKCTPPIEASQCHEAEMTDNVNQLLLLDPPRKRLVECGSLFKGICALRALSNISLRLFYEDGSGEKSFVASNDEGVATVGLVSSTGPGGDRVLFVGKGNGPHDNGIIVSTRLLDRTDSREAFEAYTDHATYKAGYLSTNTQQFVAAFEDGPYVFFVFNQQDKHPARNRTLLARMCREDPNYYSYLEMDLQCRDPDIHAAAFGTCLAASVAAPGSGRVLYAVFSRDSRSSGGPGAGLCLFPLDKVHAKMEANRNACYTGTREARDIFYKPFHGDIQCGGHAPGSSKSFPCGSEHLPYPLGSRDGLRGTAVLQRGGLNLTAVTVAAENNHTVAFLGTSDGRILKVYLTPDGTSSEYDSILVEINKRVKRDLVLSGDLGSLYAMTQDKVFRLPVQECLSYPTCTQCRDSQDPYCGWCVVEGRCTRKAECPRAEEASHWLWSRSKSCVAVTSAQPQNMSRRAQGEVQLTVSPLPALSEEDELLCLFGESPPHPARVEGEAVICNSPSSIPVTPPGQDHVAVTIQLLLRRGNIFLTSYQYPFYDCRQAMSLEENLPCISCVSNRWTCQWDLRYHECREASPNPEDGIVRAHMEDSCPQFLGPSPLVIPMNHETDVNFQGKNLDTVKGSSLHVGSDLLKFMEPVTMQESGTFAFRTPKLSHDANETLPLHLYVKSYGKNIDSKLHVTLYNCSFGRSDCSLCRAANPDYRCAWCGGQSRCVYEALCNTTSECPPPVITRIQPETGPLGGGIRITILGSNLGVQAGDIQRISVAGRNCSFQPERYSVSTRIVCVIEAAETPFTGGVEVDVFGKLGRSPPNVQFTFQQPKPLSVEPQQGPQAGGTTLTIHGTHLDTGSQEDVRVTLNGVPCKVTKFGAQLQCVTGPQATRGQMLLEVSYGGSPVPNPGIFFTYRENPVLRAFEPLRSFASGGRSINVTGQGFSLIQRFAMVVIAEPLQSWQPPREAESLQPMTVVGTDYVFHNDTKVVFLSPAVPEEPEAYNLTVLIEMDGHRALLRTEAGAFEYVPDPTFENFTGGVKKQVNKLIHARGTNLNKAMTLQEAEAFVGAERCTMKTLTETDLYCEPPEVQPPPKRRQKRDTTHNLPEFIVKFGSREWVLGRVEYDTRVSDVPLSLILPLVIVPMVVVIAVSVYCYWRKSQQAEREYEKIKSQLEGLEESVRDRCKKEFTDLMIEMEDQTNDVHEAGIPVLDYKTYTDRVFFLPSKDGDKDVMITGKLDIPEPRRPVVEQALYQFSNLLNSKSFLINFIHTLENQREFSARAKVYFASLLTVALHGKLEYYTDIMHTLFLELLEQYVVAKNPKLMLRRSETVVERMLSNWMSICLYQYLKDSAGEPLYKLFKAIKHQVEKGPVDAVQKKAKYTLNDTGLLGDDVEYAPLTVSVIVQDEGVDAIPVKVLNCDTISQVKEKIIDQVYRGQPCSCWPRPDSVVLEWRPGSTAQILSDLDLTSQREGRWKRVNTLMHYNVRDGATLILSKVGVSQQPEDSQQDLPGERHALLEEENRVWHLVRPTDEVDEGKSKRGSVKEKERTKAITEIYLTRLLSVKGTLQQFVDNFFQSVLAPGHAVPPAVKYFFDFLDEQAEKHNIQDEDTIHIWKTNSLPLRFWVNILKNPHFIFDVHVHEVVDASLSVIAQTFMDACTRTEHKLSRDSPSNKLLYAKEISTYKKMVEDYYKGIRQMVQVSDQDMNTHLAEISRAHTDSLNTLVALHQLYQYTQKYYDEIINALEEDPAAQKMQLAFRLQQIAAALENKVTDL
Sequence of UniProt Q15758 (Q15758 whole entry): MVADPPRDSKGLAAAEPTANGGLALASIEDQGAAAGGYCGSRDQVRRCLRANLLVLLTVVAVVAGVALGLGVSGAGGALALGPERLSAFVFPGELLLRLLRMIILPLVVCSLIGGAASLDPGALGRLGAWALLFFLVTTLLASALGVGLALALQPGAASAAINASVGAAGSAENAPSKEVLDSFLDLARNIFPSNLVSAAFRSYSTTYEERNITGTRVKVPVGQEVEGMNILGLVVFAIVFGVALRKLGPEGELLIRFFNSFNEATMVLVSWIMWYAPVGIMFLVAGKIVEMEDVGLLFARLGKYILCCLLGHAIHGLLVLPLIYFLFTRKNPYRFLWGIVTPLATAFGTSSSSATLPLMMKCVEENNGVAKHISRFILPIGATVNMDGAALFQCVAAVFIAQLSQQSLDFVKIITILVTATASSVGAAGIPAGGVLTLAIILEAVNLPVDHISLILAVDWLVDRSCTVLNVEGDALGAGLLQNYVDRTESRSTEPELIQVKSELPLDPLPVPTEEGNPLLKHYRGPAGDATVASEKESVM
Sequence of UniProt Q9NV96 (Q9NV96 2-361 limits assumed): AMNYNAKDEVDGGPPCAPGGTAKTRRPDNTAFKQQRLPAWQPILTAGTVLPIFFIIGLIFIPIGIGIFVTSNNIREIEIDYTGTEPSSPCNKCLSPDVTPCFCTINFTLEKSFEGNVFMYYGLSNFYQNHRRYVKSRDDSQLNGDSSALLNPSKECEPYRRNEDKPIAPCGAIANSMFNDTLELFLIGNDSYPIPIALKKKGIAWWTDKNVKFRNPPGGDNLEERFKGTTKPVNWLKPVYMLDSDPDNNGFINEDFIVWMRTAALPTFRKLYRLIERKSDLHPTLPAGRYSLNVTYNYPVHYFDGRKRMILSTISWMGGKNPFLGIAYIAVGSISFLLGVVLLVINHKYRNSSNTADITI
Sequence of UniProt O00468 (O00468 other isoform, or with tags, fused parts or gaps limits assumed): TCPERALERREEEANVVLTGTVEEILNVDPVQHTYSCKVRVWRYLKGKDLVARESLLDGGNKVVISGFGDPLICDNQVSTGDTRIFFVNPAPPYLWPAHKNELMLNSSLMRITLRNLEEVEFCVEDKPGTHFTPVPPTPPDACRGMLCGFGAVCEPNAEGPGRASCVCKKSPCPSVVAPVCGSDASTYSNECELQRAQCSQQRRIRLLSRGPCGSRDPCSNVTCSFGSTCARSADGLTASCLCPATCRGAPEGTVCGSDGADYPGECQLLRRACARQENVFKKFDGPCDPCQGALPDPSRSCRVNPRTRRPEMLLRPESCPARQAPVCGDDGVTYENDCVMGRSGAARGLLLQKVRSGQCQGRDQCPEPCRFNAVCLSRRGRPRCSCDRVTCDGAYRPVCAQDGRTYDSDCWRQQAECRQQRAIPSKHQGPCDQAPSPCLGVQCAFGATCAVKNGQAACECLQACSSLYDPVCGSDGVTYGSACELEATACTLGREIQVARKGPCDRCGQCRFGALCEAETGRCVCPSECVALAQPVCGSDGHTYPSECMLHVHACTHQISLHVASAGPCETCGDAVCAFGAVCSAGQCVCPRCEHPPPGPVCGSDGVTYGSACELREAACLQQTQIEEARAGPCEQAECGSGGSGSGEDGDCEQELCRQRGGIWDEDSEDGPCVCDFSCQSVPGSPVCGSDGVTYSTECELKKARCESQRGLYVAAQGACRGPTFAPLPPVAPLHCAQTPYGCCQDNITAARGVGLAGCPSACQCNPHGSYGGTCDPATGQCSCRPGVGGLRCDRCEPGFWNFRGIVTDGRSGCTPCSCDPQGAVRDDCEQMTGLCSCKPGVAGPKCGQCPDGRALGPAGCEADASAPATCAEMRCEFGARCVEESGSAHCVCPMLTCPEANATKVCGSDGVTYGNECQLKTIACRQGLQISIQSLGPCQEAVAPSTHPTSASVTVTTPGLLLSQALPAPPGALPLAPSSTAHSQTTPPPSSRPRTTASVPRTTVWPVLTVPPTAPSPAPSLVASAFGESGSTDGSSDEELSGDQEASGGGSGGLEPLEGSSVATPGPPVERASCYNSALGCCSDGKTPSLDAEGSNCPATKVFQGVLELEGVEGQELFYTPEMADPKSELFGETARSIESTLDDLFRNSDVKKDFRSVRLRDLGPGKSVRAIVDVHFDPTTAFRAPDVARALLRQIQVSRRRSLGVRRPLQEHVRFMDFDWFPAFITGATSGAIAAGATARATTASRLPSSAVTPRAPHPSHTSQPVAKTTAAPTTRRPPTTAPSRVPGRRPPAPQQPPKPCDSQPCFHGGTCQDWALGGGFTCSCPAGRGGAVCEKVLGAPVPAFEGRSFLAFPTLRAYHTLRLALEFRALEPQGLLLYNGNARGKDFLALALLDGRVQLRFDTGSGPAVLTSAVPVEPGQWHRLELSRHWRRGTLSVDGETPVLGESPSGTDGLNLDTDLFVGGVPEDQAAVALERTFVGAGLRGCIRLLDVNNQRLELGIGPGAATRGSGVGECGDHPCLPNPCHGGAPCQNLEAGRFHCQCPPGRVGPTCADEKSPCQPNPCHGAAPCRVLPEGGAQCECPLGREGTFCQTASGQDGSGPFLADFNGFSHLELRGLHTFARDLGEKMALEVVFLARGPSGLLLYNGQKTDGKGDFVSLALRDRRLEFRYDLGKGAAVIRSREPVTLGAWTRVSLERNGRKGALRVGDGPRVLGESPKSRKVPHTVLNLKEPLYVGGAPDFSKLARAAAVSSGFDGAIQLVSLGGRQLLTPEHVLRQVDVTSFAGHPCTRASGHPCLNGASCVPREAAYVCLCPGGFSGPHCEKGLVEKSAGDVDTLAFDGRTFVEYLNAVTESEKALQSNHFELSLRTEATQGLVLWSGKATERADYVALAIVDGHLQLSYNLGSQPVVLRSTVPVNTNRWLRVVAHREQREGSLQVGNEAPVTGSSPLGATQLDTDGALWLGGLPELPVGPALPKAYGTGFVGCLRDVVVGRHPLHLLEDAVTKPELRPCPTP
Sequence of UniProt Q9NUM4 (Q9NUM4 2-274 limits assumed): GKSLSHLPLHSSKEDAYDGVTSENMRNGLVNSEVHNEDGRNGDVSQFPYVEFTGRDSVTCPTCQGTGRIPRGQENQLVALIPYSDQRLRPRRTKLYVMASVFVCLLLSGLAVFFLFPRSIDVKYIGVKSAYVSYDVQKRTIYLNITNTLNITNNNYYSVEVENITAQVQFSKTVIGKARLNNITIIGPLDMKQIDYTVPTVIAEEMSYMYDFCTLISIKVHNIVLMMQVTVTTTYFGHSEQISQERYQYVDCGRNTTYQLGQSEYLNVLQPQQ

In the case of Avaren-Fc (AvFc) (Fc fusion), the Percentage of Total Spectra (%) [1] is reported as 0.033%, the Percentage of Total Spectra (%) [2] is reported as 0.058% and the Percentage of Total Spectra (%) [3] is reported as 0.025%. For the same substance, the Percentage of Total Spectra (%) [4] was 0.083%, the Percentage of Total Spectra (%) [5] was 0.066% and the Percentage of Total Spectra (%) [6] was 0.066%. It also gave a Percentage of Total Spectra (%) [7] of 0.05%, a Percentage of Total Spectra (%) [8] of 0.041% and a Percentage of Total Spectra (%) [9] of 0.091%. The Percentage of Total Spectra (%) [10] was 0.21%, the Percentage of Total Spectra (%) [11] was 0.058% and the Percentage of Total Spectra (%) [12] was 0.23%. It also gave a Percentage of Total Spectra (%) [13] of 0.11%, a Percentage of Total Spectra (%) [14] of 0.033% and a Percentage of Total Spectra (%) [15] of 0.13%. The Percentage of Total Spectra (%) [16] was 0.099%, the Percentage of Total Spectra (%) [17] was 0.033% and the Percentage of Total Spectra (%) [18] was 0.15%. For the same substance, the Percentage of Total Spectra (%) [19] was 0.058%, the Percentage of Total Spectra (%) [20] was 0.066% and the Percentage of Total Spectra (%) [21] was 0.13%. For the same substance, the Percentage of Total Spectra (%) [22] was 0.13%, the Percentage of Total Spectra (%) [23] was 0.12% and the Percentage of Total Spectra (%) [24] was 0.21%. It also gave a Percentage of Total Spectra (%) [25] of 0.066%, a Percentage of Total Spectra (%) [26] of 0.066% and a Percentage of Total Spectra (%) [27] of 0.35%. For the same substance, the Percentage of Total Spectra (%) [28] was 0.15%, the Percentage of Total Spectra (%) [29] was 0.017% and the Percentage of Total Spectra (%) [30] was 0.058%. For the same substance, the Percentage of Total Spectra (%) [31] was 0.0083%, the Percentage of Total Spectra (%) [32] was 0.31% and the Percentage of Total Spectra (%) [33] was 0.13%. The Percentage of Total Spectra (%) [34] was 0.13%, the Percentage of Total Spectra (%) [35] was 0.11% and the Percentage of Total Spectra (%) [36] was 0.099%. For the same substance, the Percentage of Total Spectra (%) [37] was 0.44%, the Percentage of Total Spectra (%) [38] was 0.83% and the Percentage of Total Spectra (%) [39] was 0.16%.
